Laboratory results: article PMC8792056 (2022)

B1: DNAJB14-FL-FLAG [human] / DNAJB12-FL-mOrange [human] (parent complex)
chain 1: MEGNRDEAEKCVEIAREALNAGNREKAQRFLQKAEKLYPLPSARALLEIIMKNGSTAGNSPHCRKPSGSGDQSKPNCTKDSTSGSGEGGKGYTKDQVDGVLSINKCKNYYEVLGVTKDAGDEDLKKAYRKLALKFHPDKNHAPGATDAFKKIGNAYAVLSNPEKRKQYDLTGNEEQACNHQNNGRFNFHRGCEADITPEDLFNIFFGGGFPSGSVHSFSNGRAGYSQQHQHRHSGHEREEERGDGGFSVFIQLMPIIVLILVSLLSQLMVSNPPYSLYPRSGTGQTIKMQTENLGVVYYVNKDFKNEYKGMLLQKVEKSVEEDYVTNIRNNCWKERQQKTDMQYAAKVYRDDRLRRKADALSMDNCKELERLTSLYKGG
chain 2: MESNKDEAERCISIALKAIQSNQPDRALRFLEKAQRLYPTPRVRALIESLNQKPQTAGDQPPPTDTTHATHRKAGGTDAPSANGEAGGESTKGYTAEQVAAVKRVKQCKDYYEILGVSRGASDEDLKKAYRRLALKFHPDKNHAPGATEAFKAIGTAYAVLSNPEKRKQYDQFGDDKSQAARHGHGHGDFHRGFEADISPEDLFNMFFGGGFPSSNVHVYSNGRMRYTYQQRQDRRDNQGDGGLGVFVQLMPILILILVSALSQLMVSSPPYSLSPRPSVGHIHRRVTDHLGVVYYVGDTFSEEYTGSSLKTVERNVEDDYIANLRNNCWKEKQQKEGLLYRARYFGDTDMYHRAQKMGTPSCSRLSEVQASLHG

Variants of: B1
Assay: co-IP (IP: FLAG, WB: mOrange), densitometry with Fiji; HEK293T cells; n = 3 biologically independent samples; parent: 2.7; read off a plot

response	Variant
~7.2 [ORANGE]/[FLAG]	chain 1 MEGNRDEAEKCVEIAREALNAGNREKAQRFLQKAEKLYPLPSARALLEIIMKNGSTAGNSPHCRKPSGSGDQSKPNCTKDSTSGSGEGGKGYTKDQVDGVLSINKCKNYYEVLGVTKDAGDEDLKKAYRKLALKFQPDKNHAPGATDAFKKIGNAYAVLSNPEKRKQYDLTGNEEQACNHQNNGRFNFHRGCEADITPEDLFNIFFGGGFPSGSVHSFSNGRAGYSQQHQHRHSGHEREEERGDGGFSVFIQLMPIIVLILVSLLSQLMVSNPPYSLYPRSGTGQTIKMQTENLGVVYYVNKDFKNEYKGMLLQKVEKSVEEDYVTNIRNNCWKERQQKTDMQYAAKVYRDDRLRRKADALSMDNCKELERLTSLYKGG [chain 1 H136Q]
